Measurements published in US20060204492A1 (published 2006).

Experiments:
[1] = target: T1, integrin αvβ3, purified from human placenta (human, UniProt P06756 31-1048; P05106 27-788); test: ELISA titration of Fab on immobilized αvβ3
T1 construct: mature; Native heterodimer, immobilized on ELISA plates or on the BIAcore chip; biotinylated in capture lift and capture ELISA screens; also called αvβ3 receptor; vitronectin receptor
Procedure: Just prior to use, the plates were washed two times and were then incubated 1 h at 25° C. with various dilutions of Fab. […] All dilutions and washes were in 50 mM Tris-HCl, pH 7.4, 100 mM NaCl, 2 mM CaCl₂, and 1 mM MgCl₂.

[2] = target: T1, integrin αvβ3, purified from human …; test: SPR (BIAcore), purified Fab over immobilized αvβ3
Procedure: The affinities of select variants were further characterized by utilizing surface plasmon resonance (BIAcore) to measure the association and dissociation rates of purified Fab with immobilized αᵥβ₃. […] To obtain association rate constants (kₒₙ), the binding rate at five different Fab concentrations, ranging from 5-40 μg/ml in 50 mM Tris-HCl, pH 7.4, 100 mM NaCl, 2 mM CaCl₂, and 1 mM MgCl₂, was determined at a flow rate of 10 μl/min. Dissociation rate constants (koff) were the average of five measurements obtained by analyzing the dissociation phase at an increased flow rate (40 μl/min). Sensorgrams were analyzed with the BIAevaluation 2.1 program (Pharmacia). Residual Fab was removed after each measurement with 10 mM HCl, 2 mM CaCl₂ and 1 mM MgCl₂.

[3] = target: T1, integrin αvβ3, purified from human …; test: SPR (BIAcore), purified Fab over immobilized αvβ3; remark: listed apart in the source

T1 sequence (P06756 31-1048, form in doubt, chain 1 of 2): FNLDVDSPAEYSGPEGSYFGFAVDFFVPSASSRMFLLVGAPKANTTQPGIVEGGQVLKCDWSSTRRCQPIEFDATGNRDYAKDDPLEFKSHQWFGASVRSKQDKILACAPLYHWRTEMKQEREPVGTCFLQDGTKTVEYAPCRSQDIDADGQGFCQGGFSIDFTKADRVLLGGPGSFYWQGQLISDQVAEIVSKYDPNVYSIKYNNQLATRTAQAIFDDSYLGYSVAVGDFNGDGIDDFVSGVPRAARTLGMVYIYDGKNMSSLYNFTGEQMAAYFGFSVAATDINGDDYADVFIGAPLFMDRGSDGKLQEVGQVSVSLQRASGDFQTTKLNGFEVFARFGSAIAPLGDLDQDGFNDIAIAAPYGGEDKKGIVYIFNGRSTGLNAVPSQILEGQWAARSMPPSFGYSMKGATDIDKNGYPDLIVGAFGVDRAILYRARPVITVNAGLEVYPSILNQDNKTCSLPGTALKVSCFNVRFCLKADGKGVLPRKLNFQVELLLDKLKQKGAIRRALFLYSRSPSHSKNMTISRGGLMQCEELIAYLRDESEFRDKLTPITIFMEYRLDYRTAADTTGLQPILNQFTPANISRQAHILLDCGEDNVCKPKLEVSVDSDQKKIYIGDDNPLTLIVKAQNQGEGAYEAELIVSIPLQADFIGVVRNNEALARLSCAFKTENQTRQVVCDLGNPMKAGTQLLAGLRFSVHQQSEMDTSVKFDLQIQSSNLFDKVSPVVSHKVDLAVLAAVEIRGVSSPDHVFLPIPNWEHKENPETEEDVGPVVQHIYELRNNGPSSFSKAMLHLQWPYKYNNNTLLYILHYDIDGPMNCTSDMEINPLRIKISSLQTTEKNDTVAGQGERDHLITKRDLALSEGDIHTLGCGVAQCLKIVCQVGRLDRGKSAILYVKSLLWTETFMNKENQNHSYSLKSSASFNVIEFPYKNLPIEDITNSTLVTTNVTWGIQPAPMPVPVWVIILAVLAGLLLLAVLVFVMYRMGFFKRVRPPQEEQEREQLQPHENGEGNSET
T1 sequence (P05106 27-788, form in doubt, chain 2 of 2): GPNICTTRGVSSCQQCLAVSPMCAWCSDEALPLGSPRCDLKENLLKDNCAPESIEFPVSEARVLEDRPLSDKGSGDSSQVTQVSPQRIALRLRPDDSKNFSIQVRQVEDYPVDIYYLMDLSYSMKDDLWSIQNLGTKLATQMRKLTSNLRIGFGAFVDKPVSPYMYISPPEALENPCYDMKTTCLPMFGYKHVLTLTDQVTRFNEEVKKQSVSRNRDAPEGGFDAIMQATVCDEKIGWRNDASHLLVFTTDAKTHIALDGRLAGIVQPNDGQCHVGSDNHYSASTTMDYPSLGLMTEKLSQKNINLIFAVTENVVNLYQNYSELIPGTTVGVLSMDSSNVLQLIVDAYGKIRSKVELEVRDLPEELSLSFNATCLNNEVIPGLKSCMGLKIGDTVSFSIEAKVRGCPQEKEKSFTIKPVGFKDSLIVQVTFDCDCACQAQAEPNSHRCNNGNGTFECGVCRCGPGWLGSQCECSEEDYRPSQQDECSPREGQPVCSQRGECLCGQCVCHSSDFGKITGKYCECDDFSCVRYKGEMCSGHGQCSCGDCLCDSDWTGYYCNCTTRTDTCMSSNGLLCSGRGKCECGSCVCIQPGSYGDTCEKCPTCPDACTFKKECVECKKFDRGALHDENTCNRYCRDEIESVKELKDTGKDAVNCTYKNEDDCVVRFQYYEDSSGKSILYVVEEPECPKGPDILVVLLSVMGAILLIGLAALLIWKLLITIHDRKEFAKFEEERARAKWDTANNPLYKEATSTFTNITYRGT

| Binder | fold enhanced binding over parent LM609 grafted antibody [1] | Kd [2] | koff [2] | kon [2] | fold enhanced affinity over LM609 grafted antibody [3] | fold slower dissociation than LM609 grafted antibody [3] |
| --- | --- | --- | --- | --- | --- | --- |
| LM609 grafted antibody variant G102 (Fab, V domains shown, Fab; also called clone G102) VH: QVQLVESGGGVVQPGRSLRLSCAASGFTFSSYDMSWVRQAPGKGLEWVAKVSSGGGSTYYLDTVQGRFTISRDNSKNTLYLQMNSLRAEDTAVYYCARHNYGSFAGWGQGTTVTVSS VL: EIVLTQSPATLSLSPGERATLSCQASQSISNHLHWYQQRPGQAPRLLIRYRSQSISGIPARFSGSGSGTDFTLTISSLEPEDFAVYYCQQSGSWPHTFGGGTKVEIK | > 3 fold | 12.5 nM | 0.00201 s⁻¹ | 161000 M⁻¹ s⁻¹ | 2.2 fold |  |
| LM609 grafted antibody variant E102 (Fab, V domains shown, Fab) VH: QVQLVESGGGVVQPGRSLRLSCAASGFTFSSYDMSWVRQAPGKGLEWVAKVSSGGGSTYYLDTVQGRFTISRDNSKNTLYLQMNSLRAEDTAVYYCARHNYGSFAEWGQGTTVTVSS VL: EIVLTQSPATLSLSPGERATLSCQASQSISNHLHWYQQRPGQAPRLLIRYRSQSISGIPARFSGSGSGTDFTLTISSLEPEDFAVYYCQQSGSWPHTFGGGTKVEIK | > 3 fold |  |  |  |  |  |
| LM609 grafted antibody variant T102 (Fab, V domains shown, Fab) VH: QVQLVESGGGVVQPGRSLRLSCAASGFTFSSYDMSWVRQAPGKGLEWVAKVSSGGGSTYYLDTVQGRFTISRDNSKNTLYLQMNSLRAEDTAVYYCARHNYGSFATWGQGTTVTVSS VL: EIVLTQSPATLSLSPGERATLSCQASQSISNHLHWYQQRPGQAPRLLIRYRSQSISGIPARFSGSGSGTDFTLTISSLEPEDFAVYYCQQSGSWPHTFGGGTKVEIK | > 3 fold | 5.8 nM | 0.00143 s⁻¹ | 246000 M⁻¹ s⁻¹ |  |  |
| LM609 grafted antibody variant T27 (Fab, V domains shown, Fab) VH: QVQLVESGGGVVQPGRSLRLSCAASGTTFSSYDMSWVRQAPGKGLEWVAKVSSGGGSTYYLDTVQGRFTISRDNSKNTLYLQMNSLRAEDTAVYYCARHNYGSFAYWGQGTTVTVSS VL: EIVLTQSPATLSLSPGERATLSCQASQSISNHLHWYQQRPGQAPRLLIRYRSQSISGIPARFSGSGSGTDFTLTISSLEPEDFAVYYCQQSGSWPHTFGGGTKVEIK | > 3 fold |  |  |  |  |  |
| LM609 grafted antibody variant M102 (Fab, V domains shown, Fab) VH: QVQLVESGGGVVQPGRSLRLSCAASGFTFSSYDMSWVRQAPGKGLEWVAKVSSGGGSTYYLDTVQGRFTISRDNSKNTLYLQMNSLRAEDTAVYYCARHNYGSFAMWGQGTTVTVSS VL: EIVLTQSPATLSLSPGERATLSCQASQSISNHLHWYQQRPGQAPRLLIRYRSQSISGIPARFSGSGSGTDFTLTISSLEPEDFAVYYCQQSGSWPHTFGGGTKVEIK | > 3 fold |  |  |  |  |  |
| LM609 grafted antibody variant P60 (Fab, V domains shown, Fab) VH: QVQLVESGGGVVQPGRSLRLSCAASGFTFSSYDMSWVRQAPGKGLEWVAKVSSGGGSTYYPDTVQGRFTISRDNSKNTLYLQMNSLRAEDTAVYYCARHNYGSFAYWGQGTTVTVSS VL: EIVLTQSPATLSLSPGERATLSCQASQSISNHLHWYQQRPGQAPRLLIRYRSQSISGIPARFSGSGSGTDFTLTISSLEPEDFAVYYCQQSGSWPHTFGGGTKVEIK | > 3 fold | 5.8 nM | 0.00185 s⁻¹ | 318000 M⁻¹ s⁻¹ |  |  |
| LM609 grafted antibody variant F32 (Fab, V domains shown, Fab) VH: QVQLVESGGGVVQPGRSLRLSCAASGFTFSSYDMSWVRQAPGKGLEWVAKVSSGGGSTYYLDTVQGRFTISRDNSKNTLYLQMNSLRAEDTAVYYCARHNYGSFAYWGQGTTVTVSS VL: EIVLTQSPATLSLSPGERATLSCQASQSISNFLHWYQQRPGQAPRLLIRYRSQSISGIPARFSGSGSGTDFTLTISSLEPEDFAVYYCQQSGSWPHTFGGGTKVEIK | > 3 fold | 2.5 nM | 0.00042 s⁻¹ | 167000 M⁻¹ s⁻¹ |  | 11.8 fold |
| LM609 grafted antibody variant S51 (Fab, V domains shown, Fab) VH: QVQLVESGGGVVQPGRSLRLSCAASGFTFSSYDMSWVRQAPGKGLEWVAKVSSGGGSTYYLDTVQGRFTISRDNSKNTLYLQMNSLRAEDTAVYYCARHNYGSFAYWGQGTTVTVSS VL: EIVLTQSPATLSLSPGERATLSCQASQSISNHLHWYQQRPGQAPRLLIRYSSQSISGIPARFSGSGSGTDFTLTISSLEPEDFAVYYCQQSGSWPHTFGGGTKVEIK | > 3 fold |  |  |  |  |  |
| LM609 grafted antibody variant H97 (Fab, V domains shown, Fab) VH: QVQLVESGGGVVQPGRSLRLSCAASGFTFSSYDMSWVRQAPGKGLEWVAKVSSGGGSTYYLDTVQGRFTISRDNSKNTLYLQMNSLRAEDTAVYYCARHNHGSFAYWGQGTTVTVSS VL: EIVLTQSPATLSLSPGERATLSCQASQSISNHLHWYQQRPGQAPRLLIRYRSQSISGIPARFSGSGSGTDFTLTISSLEPEDFAVYYCQQSGSWPHTFGGGTKVEIK | > 3 fold | 13.8 nM | 0.00303 s⁻¹ | 220000 M⁻¹ s⁻¹ |  | 1.6 fold |
| LM609 grafted antibody variant D102 (Fab, V domains shown, Fab) VH: QVQLVESGGGVVQPGRSLRLSCAASGFTFSSYDMSWVRQAPGKGLEWVAKVSSGGGSTYYLDTVQGRFTISRDNSKNTLYLQMNSLRAEDTAVYYCARHNYGSFADWGQGTTVTVSS VL: EIVLTQSPATLSLSPGERATLSCQASQSISNHLHWYQQRPGQAPRLLIRYRSQSISGIPARFSGSGSGTDFTLTISSLEPEDFAVYYCQQSGSWPHTFGGGTKVEIK | > 3 fold | 3.5 nM | 0.00097 s⁻¹ | 276000 M⁻¹ s⁻¹ |  |  |
| LM609 grafted antibody variant K52 (Fab, V domains shown, Fab) VH: QVQLVESGGGVVQPGRSLRLSCAASGFTFSSYDMSWVRQAPGKGLEWVAKVKSGGGSTYYLDTVQGRFTISRDNSKNTLYLQMNSLRAEDTAVYYCARHNYGSFAYWGQGTTVTVSS VL: EIVLTQSPATLSLSPGERATLSCQASQSISNHLHWYQQRPGQAPRLLIRYRSQSISGIPARFSGSGSGTDFTLTISSLEPEDFAVYYCQQSGSWPHTFGGGTKVEIK | > 3 fold | 12.2 nM | 0.00218 s⁻¹ | 178000 M⁻¹ s⁻¹ |  |  |
| LM609 grafted antibody variant W29 (Fab, V domains shown, Fab) VH: QVQLVESGGGVVQPGRSLRLSCAASGFTWSSYDMSWVRQAPGKGLEWVAKVSSGGGSTYYLDTVQGRFTISRDNSKNTLYLQMNSLRAEDTAVYYCARHNYGSFAYWGQGTTVTVSS VL: EIVLTQSPATLSLSPGERATLSCQASQSISNHLHWYQQRPGQAPRLLIRYRSQSISGIPARFSGSGSGTDFTLTISSLEPEDFAVYYCQQSGSWPHTFGGGTKVEIK | > 3 fold |  |  |  |  |  |

Next, values leading:

| fold enhanced binding over parent LM609 grafted antibody [1] | Kd [2] | koff [2] | kon [2] | fold enhanced affinity over LM609 grafted antibody [3] | fold slower dissociation than LM609 grafted antibody [3] | Binder |
| --- | --- | --- | --- | --- | --- | --- |
| > 3 fold | 8.3 nM | 0.00227 s⁻¹ | 275000 M⁻¹ s⁻¹ |  |  | LM609 grafted antibody variant A102 (Fab, V domains shown, Fab) VH: QVQLVESGGGVVQPGRSLRLSCAASGFTFSSYDMSWVRQAPGKGLEWVAKVSSGGGSTYYLDTVQGRFTISRDNSKNTLYLQMNSLRAEDTAVYYCARHNYGSFAAWGQGTTVTVSS VL: EIVLTQSPATLSLSPGERATLSCQASQSISNHLHWYQQRPGQAPRLLIRYRSQSISGIPARFSGSGSGTDFTLTISSLEPEDFAVYYCQQSGSWPHTFGGGTKVEIK |
| > 3 fold | 5.7 nM | 0.00135 s⁻¹ | 236000 M⁻¹ s⁻¹ |  |  | LM609 grafted antibody variant N92 (Fab, V domains shown, Fab; also called LM609 grafted antibody having Asn at position 92 of light chain CDR3) VH: QVQLVESGGGVVQPGRSLRLSCAASGFTFSSYDMSWVRQAPGKGLEWVAKVSSGGGSTYYLDTVQGRFTISRDNSKNTLYLQMNSLRAEDTAVYYCARHNYGSFAYWGQGTTVTVSS VL: EIVLTQSPATLSLSPGERATLSCQASQSISNHLHWYQQRPGQAPRLLIRYRSQSISGIPARFSGSGSGTDFTLTISSLEPEDFAVYYCQQSNSWPHTFGGGTKVEIK |
| > 3 fold |  |  |  |  |  | LM609 grafted antibody variant T92 (Fab, V domains shown, Fab) VH: QVQLVESGGGVVQPGRSLRLSCAASGFTFSSYDMSWVRQAPGKGLEWVAKVSSGGGSTYYLDTVQGRFTISRDNSKNTLYLQMNSLRAEDTAVYYCARHNYGSFAYWGQGTTVTVSS VL: EIVLTQSPATLSLSPGERATLSCQASQSISNHLHWYQQRPGQAPRLLIRYRSQSISGIPARFSGSGSGTDFTLTISSLEPEDFAVYYCQQSTSWPHTFGGGTKVEIK |
| > 3 fold | 9.2 nM | 0.00223 s⁻¹ | 243000 M⁻¹ s⁻¹ |  |  | LM609 grafted antibody variant L96 (Fab, V domains shown, Fab) VH: QVQLVESGGGVVQPGRSLRLSCAASGFTFSSYDMSWVRQAPGKGLEWVAKVSSGGGSTYYLDTVQGRFTISRDNSKNTLYLQMNSLRAEDTAVYYCARHNYGSFAYWGQGTTVTVSS VL: EIVLTQSPATLSLSPGERATLSCQASQSISNHLHWYQQRPGQAPRLLIRYRSQSISGIPARFSGSGSGTDFTLTISSLEPEDFAVYYCQQSGSWPLTFGGGTKVEIK |
| > 3 fold |  |  |  |  |  | LM609 grafted antibody variant L30 (Fab, V domains shown, Fab) VH: QVQLVESGGGVVQPGRSLRLSCAASGFTFLSYDMSWVRQAPGKGLEWVAKVSSGGGSTYYLDTVQGRFTISRDNSKNTLYLQMNSLRAEDTAVYYCARHNYGSFAYWGQGTTVTVSS VL: EIVLTQSPATLSLSPGERATLSCQASQSISNHLHWYQQRPGQAPRLLIRYRSQSISGIPARFSGSGSGTDFTLTISSLEPEDFAVYYCQQSGSWPHTFGGGTKVEIK |
| > 3 fold |  |  |  |  |  | LM609 grafted antibody variant Q96 (Fab, V domains shown, Fab) VH: QVQLVESGGGVVQPGRSLRLSCAASGFTFSSYDMSWVRQAPGKGLEWVAKVSSGGGSTYYLDTVQGRFTISRDNSKNTLYLQMNSLRAEDTAVYYCARHNYGSFAYWGQGTTVTVSS VL: EIVLTQSPATLSLSPGERATLSCQASQSISNHLHWYQQRPGQAPRLLIRYRSQSISGIPARFSGSGSGTDFTLTISSLEPEDFAVYYCQQSGSWPQTFGGGTKVEIK |
